The numbers were not newly measured in paper PMC7785802, “Therapeutic Efficacy of a Trichinella Spiralis Paramyosin-Derived Peptide Modified With a Membrane-Targeting Signal in Mice With Antigen-Induced Arthritis” (Frontiers in Microbiology, 2020), which cites them from elsewhere.

Where two headings read alike, the source gives them in different places.

In this series the test system is antigen-induced arthritis (AIA). As to conditions: intraarticular injection prior to disease onset or at disease flares, animal models, Williams et al., 2004, Durigutto et al., 2013. The text has this: As MAC is a therapeutic target in RA, complement inhibitors have shown potential for preventing and treating arthritis in animal models (Goodfellow et al., [2000]; Durigutto et al., [2013]). Moreover, local or targeted inhibition might be an effective way to circumvent the adverse effects of systemic complement inhibition. […] More precisely, intraarticular injection of membrane-targeted CD59 or Fc fusio ... || RA is an autoimmune disease that has been confirmed to involve inappropriate complement activation in the joint cavity, making the delivery of anti-complement drugs into the joint cavity an ideal therapeutic strategy to relieve RA progression (Dijkstra et al., [2019]). […] Murine AIA, a well-recognized acute complement-dependent arthritis, imitates the pathology of RA (van den Berg et al., [2007]). As complement activation is involved in the process of AIA, this model has been utilized in many studies to assess the therapeutic efficacy of complement inhibitors that might affect various stages of complement activation. In animal models, intraarticular injection of complement inhibitors (including sCR1, CD59, and anti-C5 neutralizing recombinant mini-antibody) prior to ...

B1: CD59: a heavily glycosylated protein of 20 kDa that can specifically inhibit MAC formation (protein, UniProt P13987 26-102, looked up)
CD59 glycoprotein: LQCYNCPNPTADCKTAVNCSSDFDACLITKAGLQVYNKCWKFEHCNFNDVTTRLRENELTYYCCKKDLCNFNEQLEN
On to B1, for which the “effect on joint swelling and development of AIA” value is, setting by setting: (ref Goodfellow et al., 2000) “alleviate joint swelling and the development of AIA”; (ref Harris et al., 2002) “alleviate joint swelling and the development of AIA”.
